test system: Escherichia coli TOP10; experiment: shrunken log2 fold change of peptide-encoding DNA abundance (4.5 h post-induction vs induction); higher = less antimicrobial activity (less host growth inhibition); conditions: time post-induction: 4.5 h; library: site-saturation at positions 5, 18, 19, 20
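Also: peptides expressed intracellularly from a pBAD plasmid library in pooled LB shake-flask culture, induced with 0.3% L-arabinose, DNA abundance read by NGS, three biological replicates, DESeq2 with apeglm shrinkage.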

| Sequence | shrunken log2 fold change |
| --- | --- |
| RRIRSRPPRLPRPRPRPAMFPRP | -0.0843 |
| RRIRMRPPRLPRPRPRPTIAPRP | 0.26 |
| RRIRERPPRLPRPRPRPQNAPRP | 0.0619 |
| RRIRFRPPRLPRPRPRPWLVPRP | -0.135 |
| RRIRPRPPRLPRPRPRPEWRPRP | 0.362 |
| RRIRWRPPRLPRPRPRPMDGPRP | 0.309 |
| RRIRGRPPRLPRPRPRPPIMPRP | 0.375 |
| RRIRWRPPRLPRPRPRPKTIPRP | 0.118 |
| RRIRRRPPRLPRPRPRPRIAPRP | 0.652 |
| RRIRQRPPRLPRPRPRPHSRPRP | -0.17 |
| RRIRKRPPRLPRPRPRPRIIPRP | 0.081 |
| RRIRKRPPRLPRPRPRPASIPRP | 0.0215 |
| RRIRHRPPRLPRPRPRPMVIPRP | -0.0264 |
| RRIRHRPPRLPRPRPRPMARPRP | 0.0467 |
| RRIRSRPPRLPRPRPRPDTHPRP | -0.448 |
| RRIRDRPPRLPRPRPRPPVPPRP | 0.635 |
| RRIRQRPPRLPRPRPRPPLSPRP | 0.0729 |
| RRIRTRPPRLPRPRPRPNRSPRP | -0.069 |
| RRIRARPPRLPRPRPRPHHQPRP | -0.0146 |
| RRIRMRPPRLPRPRPRPYQVPRP | -0.393 |
| RRIRSRPPRLPRPRPRPKVLPRP | 0.248 |
| RRIRARPPRLPRPRPRPPNDPRP | 0.459 |

| Sequence | shrunken log2 fold change |
| --- | --- |
| RRIRGRPPRLPRPRPRPATEPRP | 0.976 |
| RRIRFRPPRLPRPRPRPKESPRP | -0.0731 |
| RRIRHRPPRLPRPRPRPRYRPRP | -0.109 |
| RRIRQRPPRLPRPRPRPCFGPRP | 0.0162 |
| RRIRERPPRLPRPRPRPTYSPRP | -0.578 |
| RRIRTRPPRLPRPRPRPWWVPRP | -0.0227 |
| RRIRARPPRLPRPRPRPVPNPRP | -0.0263 |
| RRIRGRPPRLPRPRPRPMNEPRP | 0.056 |
| RRIRPRPPRLPRPRPRPGNPPRP | -0.043 |
| RRIRKRPPRLPRPRPRPKMKPRP | 0.444 |
| RRIRVRPPRLPRPRPRPKSEPRP | 0.0185 |
| RRIRSRPPRLPRPRPRPNYWPRP | -0.143 |
| RRIRTRPPRLPRPRPRPWSGPRP | -0.187 |
| RRIRARPPRLPRPRPRPKLSPRP | 0.138 |
| RRIRRRPPRLPRPRPRPMTEPRP | 0.0575 |
| RRIRHRPPRLPRPRPRPGSLPRP | 0.134 |
| RRIRERPPRLPRPRPRPGTPPRP | 0.0316 |
| RRIRRRPPRLPRPRPRPTNSPRP | 1.15 |
| RRIRVRPPRLPRPRPRPQMDPRP | -0.297 |
| RRIRERPPRLPRPRPRPAPVPRP | 0.055 |
| RRIRMRPPRLPRPRPRPHRHPRP | -0.344 |
| RRIRIRPPRLPRPRPRPMQYPRP | -0.016 |

| Sequence | shrunken log2 fold change |
| --- | --- |
| RRIRWRPPRLPRPRPRPMSVPRP | 0.0691 |
| RRIRGRPPRLPRPRPRPRMIPRP | 0.646 |
| RRIRSRPPRLPRPRPRPIPGPRP | -0.0336 |
| RRIRERPPRLPRPRPRPDNIPRP | -0.745 |
| RRIRSRPPRLPRPRPRPFMGPRP | -0.216 |
| RRIRKRPPRLPRPRPRPQNYPRP | -0.196 |
| RRIRSRPPRLPRPRPRPDPHPRP | -0.151 |
| RRIRTRPPRLPRPRPRPSLQPRP | -0.0953 |
| RRIRCRPPRLPRPRPRPHKMPRP | -0.593 |
| RRIRWRPPRLPRPRPRPRVSPRP | 0.158 |
| RRIRPRPPRLPRPRPRPMEHPRP | -0.0171 |
| RRIRVRPPRLPRPRPRPRAWPRP | 0.086 |
| RRIRVRPPRLPRPRPRPKHNPRP | -0.292 |
| RRIRHRPPRLPRPRPRPLCNPRP | -0.337 |
| RRIRIRPPRLPRPRPRPYPLPRP | -0.176 |
| RRIRGRPPRLPRPRPRPRRIPRP | 0.451 |
| RRIRPRPPRLPRPRPRPINIPRP | -1.15 |
| RRIRNRPPRLPRPRPRPTHKPRP | 0.322 |
| RRIRNRPPRLPRPRPRPQNFPRP | 0.0364 |
| RRIRWRPPRLPRPRPRPATCPRP | 0.275 |
| RRIRCRPPRLPRPRPRPMDDPRP | -0.194 |
| RRIRIRPPRLPRPRPRPDIRPRP | -0.00601 |

| Sequence | shrunken log2 fold change |
| --- | --- |
| RRIRCRPPRLPRPRPRPINRPRP | 0.0376 |
| RRIRRRPPRLPRPRPRPDYVPRP | 0.0255 |
| RRIRVRPPRLPRPRPRPALDPRP | 0.357 |
| RRIRNRPPRLPRPRPRPDSSPRP | -0.00145 |
| RRIRLRPPRLPRPRPRPGFHPRP | 0.0368 |
| RRIRCRPPRLPRPRPRPDFFPRP | 0.035 |
| RRIRVRPPRLPRPRPRPFQRPRP | 0.0825 |
| RRIRIRPPRLPRPRPRPRYMPRP | -0.114 |
| RRIRLRPPRLPRPRPRPIHCPRP | -0.0842 |
| RRIRPRPPRLPRPRPRPMQIPRP | 0.114 |
| RRIRERPPRLPRPRPRPTNWPRP | 0.0202 |
| RRIRRRPPRLPRPRPRPIPDPRP | 0.277 |
| RRIRARPPRLPRPRPRPLGMPRP | 0.0985 |
| RRIRHRPPRLPRPRPRPWWEPRP | -0.015 |
| RRIRPRPPRLPRPRPRPYPQPRP | -0.252 |
| RRIRQRPPRLPRPRPRPRWQPRP | 0.0759 |
| RRIRLRPPRLPRPRPRPHQIPRP | -0.249 |
| RRIRDRPPRLPRPRPRPGEIPRP | 0.501 |
| RRIRIRPPRLPRPRPRPMQFPRP | -0.343 |
| RRIRNRPPRLPRPRPRPYTMPRP | -0.38 |
| RRIRFRPPRLPRPRPRPMCLPRP | -0.564 |
| RRIRIRPPRLPRPRPRPRARPRP | 0.456 |

| Sequence | shrunken log2 fold change |
| --- | --- |
| RRIRDRPPRLPRPRPRPNMWPRP | -0.152 |
| RRIRLRPPRLPRPRPRPRCEPRP | 0.194 |
| RRIRRRPPRLPRPRPRPPRNPRP | 1.28 |
| RRIRCRPPRLPRPRPRPEVLPRP | 0.149 |
| RRIRKRPPRLPRPRPRPHCTPRP | -0.24 |
| RRIRFRPPRLPRPRPRPWFCPRP | 3.7 |
| RRIRSRPPRLPRPRPRPVDPPRP | 0.00726 |
| RRIRERPPRLPRPRPRPMIDPRP | -0.28 |
| RRIRIRPPRLPRPRPRPQMEPRP | -0.12 |
| RRIRWRPPRLPRPRPRPMSFPRP | 0.00806 |
| RRIRARPPRLPRPRPRPYWHPRP | -0.241 |
| RRIRVRPPRLPRPRPRPKFRPRP | 0.0323 |
| RRIRCRPPRLPRPRPRPIPDPRP | 0.106 |
| RRIRSRPPRLPRPRPRPAQQPRP | 0.409 |
| RRIRWRPPRLPRPRPRPTFKPRP | 0.132 |
| RRIRWRPPRLPRPRPRPLTYPRP | -0.423 |
| RRIRDRPPRLPRPRPRPAARPRP | 0.518 |
| RRIRCRPPRLPRPRPRPRGVPRP | 0.69 |
| RRIRYRPPRLPRPRPRPGEGPRP | 0.00405 |
| RRIRFRPPRLPRPRPRPEYAPRP | -0.14 |
| RRIRGRPPRLPRPRPRPPYPPRP | 0.291 |

Reference: the supplement of paper PMC9112550, “Optimization of the antimicrobial peptide Bac7 by deep mutational scanning” (BMC Biology, 2022)
